Molecular target: mature h(m)TGF-beta3 (mature form of human (mouse) TGF-beta3) (human (mouse); the filing says the mature forms are identical)
Experiment: cell-based or functional assay

suppression of TGF-beta3 physiological activity (Smad signal), SEAP activity of HEK-Blue TGFb cells, OD620nm: 100%
Substance: GC1008-hIgG1 (antibody)

Reference: patent WO2017204277A1
